To fix the notation:
T1: Recombinant FVIII/FV^1811-1818 light chain chimera (UniProt P00451 1668-2351)
T1 construct: domain: light chain (a3-A3-C1-C2); The single substitutions were worked out from the two printed octapeptides; In the assays it was captured on immobilised scFv EL14
T1 sequence: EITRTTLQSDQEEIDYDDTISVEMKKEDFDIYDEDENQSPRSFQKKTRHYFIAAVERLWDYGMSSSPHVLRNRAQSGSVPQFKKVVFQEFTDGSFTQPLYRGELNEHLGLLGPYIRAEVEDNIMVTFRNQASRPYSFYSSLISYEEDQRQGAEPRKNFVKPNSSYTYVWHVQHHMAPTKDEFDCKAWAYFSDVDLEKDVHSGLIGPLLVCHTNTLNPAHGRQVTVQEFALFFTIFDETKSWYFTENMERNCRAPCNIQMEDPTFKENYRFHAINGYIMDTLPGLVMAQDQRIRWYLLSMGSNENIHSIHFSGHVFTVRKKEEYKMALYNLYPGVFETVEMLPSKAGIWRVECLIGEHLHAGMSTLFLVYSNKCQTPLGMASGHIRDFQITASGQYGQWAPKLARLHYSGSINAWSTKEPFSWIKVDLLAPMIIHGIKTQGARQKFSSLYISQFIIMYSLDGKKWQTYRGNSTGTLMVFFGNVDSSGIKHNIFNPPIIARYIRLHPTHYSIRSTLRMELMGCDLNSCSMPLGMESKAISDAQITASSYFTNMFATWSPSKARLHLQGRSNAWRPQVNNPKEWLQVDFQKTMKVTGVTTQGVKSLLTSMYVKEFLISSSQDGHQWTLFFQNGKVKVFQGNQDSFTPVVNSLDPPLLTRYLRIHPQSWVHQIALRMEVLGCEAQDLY

T2: Factor Va light chain (human, UniProt P12259 1574-2224)
T2 construct: domain: FVa light chain; also called FVa light chain
T2 sequence (looked up): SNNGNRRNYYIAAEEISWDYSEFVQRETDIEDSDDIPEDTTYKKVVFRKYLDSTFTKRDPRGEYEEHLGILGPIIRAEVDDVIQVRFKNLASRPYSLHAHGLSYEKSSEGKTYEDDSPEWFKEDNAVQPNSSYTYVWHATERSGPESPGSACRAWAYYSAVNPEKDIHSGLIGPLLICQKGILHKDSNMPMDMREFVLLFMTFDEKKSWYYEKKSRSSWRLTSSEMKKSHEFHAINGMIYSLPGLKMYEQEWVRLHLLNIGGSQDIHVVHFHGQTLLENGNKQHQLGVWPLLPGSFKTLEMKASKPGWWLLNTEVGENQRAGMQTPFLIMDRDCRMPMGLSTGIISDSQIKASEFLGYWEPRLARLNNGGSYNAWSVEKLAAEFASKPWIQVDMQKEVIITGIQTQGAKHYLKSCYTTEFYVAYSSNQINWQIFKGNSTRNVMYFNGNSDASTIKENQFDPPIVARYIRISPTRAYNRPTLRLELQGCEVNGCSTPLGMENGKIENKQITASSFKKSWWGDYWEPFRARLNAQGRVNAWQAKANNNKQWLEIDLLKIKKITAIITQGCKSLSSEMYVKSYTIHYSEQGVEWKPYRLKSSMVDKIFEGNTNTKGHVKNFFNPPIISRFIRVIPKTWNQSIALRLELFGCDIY

B1: scFv KM41 (scFv)
scFv: QVQLLQSAADVKKPGASVKVSCTASGYIFTSYDIDWVRQATGQGLEWMGWMNPNSGNAGFAQKFKGRLTLTRDTSTSTAYMELRRLESEDTAVYYCARSTPHSYSGSGLPPTSDSWGQGTLVTVSSGGGGSGGGGSGGGGSEIVLTQSPGTLSLSPGERATLSCRASQSVSSSFLGWYQQKPGQAPRLLIYGASSRATGIPDRFSGSGSGTDFTLTISRLEPEDFAVYYCQQYGISPLTFGGGTKLEIKRAAAEQKLISEEDLNGAAHHHHHH
notes: Expressed in E. coli TG1
B2: Recombinant LRP cluster II (receptor, UniProt Q07954 805-1184, looked up)
chain: NKCRVNNGGCSSLCLATPGSRQCACAEDQVLDADGVTCLANPSYVPPPQCQPGEFACANSRCIQERWKCDGDNDCLDNSDEAPALCHQHTCPSDRFKCENNRCIPNRWLCDGDNDCGNSEDESNATCSARTCPPNQFSCASGRCIPISWTCDLDDDCGDRSDESASCAYPTCFPLTQFTCNNGRCININWRCDNDNDCGDNSDEAGCSHSCSSTQFKCNSGRCIPEHWTCDGDNDCGDYSDETHANCTNQATRPPGGCHTDEFQCRLDGLCIPLRWRCDGDTDCMDSSDEKSCEGVTHVCDPSVKFGCKDSARCISKAWVCDGDNDCEDNSDEENCESLACRPPSHPCANNTSVCLPPDKLCDGNDDCGDGSDEGELCDQ
notes: domain: cluster II
B3: Plasma-derived FVIII light chain (other, UniProt P00451 1668-2351, looked up)
chain: T1 sequence with S163E, S164T, Y165K, V168F, H170K
notes: domain: light chain (a3-A3-C1-C2); Prepared from plasma as in the cited literature; Human by context (the peptides are said to cover human FVIII regions); Residue numbers count on mature FVIII, without the signal peptide; also called LCh; 80-kDa light chain (a3-A3-C1-C2)

Where a chain is given by its changes, count along the chain named.

Experiment [1] concerns the target Purified placenta-derived low-density lipoprotein receptor-related protein (LRP) (UniProt Q07954). Kind of experiment: SPR, immobilised LRP, two-site model, site class 1. For orientation: In SPR one partner is held on a chip, and binding of the other changes the refractive index at the surface.
The target is the same in experiment [2]. The experiment in a line: SPR, immobilised LRP, two-site model, site class 2.
Experiment [3] has the same target. Kind of experiment: SPR, immobilised LRP, steady-state affinity analysis.
Experiment [4] has as its target B3. Kind of experiment: solid-phase competition assay: FVIII light chain (25 nM) on immobilised LRP cluster II (1 pmol/well) in the presence of scFv KM41 (0-100 nM); detection with peroxidase-conjugated CLB-CAg 12. The method, then:
FIG. 4. […] Data represent the mean ±S.D. of three experiments. […] Complexes were allowed to form for 30 min before SPR analysis.
(§1) Solid-phase Binding Assays—Recombinant LRP clusters II or IV (1 pmol/well) were adsorbed onto microtiter wells in 50 mM NaHCO₃ (pH 9.8) in a volume of 50 μl for 16 h at 4° C. Wells were blocked with 2% (w/v) HSA, 150 mM NaCl, 5 mM CaCl₂, and 50 mM Tris (pH 7.4) in a volume of 200 μl for 1 h at 37° C. […] Bound ligand was detected by incubating with peroxidase-conjugated monoclonal antibody CLB-CAg 12 in the same buffer for 15 min at 37° C. […] Residual FVIII binding was detected as described above.

For experiment [5], the target named is T1, Recombinant FVIII/FV^1811-1818 light …. Kind of experiment: SPR (BIAcore), FVIII/FV1811-1818 light chain chimera captured at 20 fmol/mm2 on immobilised scFv EL14, scFv KM41 40 nM as analyte.
Protocol: Response is indicated as Resonance Units (RU) and is corrected for nonspecific binding.
(§2) Surface Plasmon Resonance—The kinetics of protein interactions was determined by surface plasmon resonance (SPR) analysis, employing a BIAcore™2000 biosensor system (Biacore AS, Uppsala, Sweden). […] One control flow-channel was routinely activated and blocked in the absence of protein. […] Dissociation was allowed for 2 min in the same buffer flow. Sensor-chips were regenerated using several pulses of either 100 mM H₃PO₄ or 20 mM EDTA, 1 M NaCl, and 50 mM Hepes (pH 7.4) at a flow rate of 20 μl/min. The association (kₒₙ) and dissociation (koff) rate constants were determined by using the BIAevaluation software 3.1 (Biacore AB, Uppsala, Sweden). Data were corrected for bulk refractive index changes and fitted by nonlinear regression analysis according to a two-site binding model. Equilibrium dissociation constants (kd) were calculated from the ratio koff/kₒₙ. The kd value for low-affinity interactions was estimated using steady-state affinity analysis by using BIAevaluation software.
Experiment [6] addresses B2. The experiment in a line: solid-phase competition: peptide against FVIII light chain (25 nM) binding to immobilised LRP cluster II. On the procedure:
as §1
Half-maximum inhibition constants (IC₅₀) represent the mean values ±S.D. of three experiments.)

In experiment [7] the target is T2, Factor Va light chain. The experiment in a line: SPR (BIAcore), FVa light chain immobilised at 76 fmol/mm2, LRP cluster II 100 nM as analyte.
Protocol: Response is indicated as Resonance Units (RU) and is corrected for nonspecific binding, which was less than 5% relative to coated channels.
as §2
Experiment [8] has as its target B2. The experiment in a line: solid-phase binding assay: serial dilutions of FVIII light chain on immobilised LRP cluster II (1 pmol/well); detection with peroxidase-conjugated CLB-CAg 12. On the procedure:
FIG. 2. […] Data represent the mean ±S.D. of three experiments
as §1

The source of these data is patent US20080219983A1 (TRIMESTER CUSHION, published 2008).

Chain of Purified placenta-derived low-density lipoprotein receptor-related protein (LRP) (Q07954 20-4544, form in doubt): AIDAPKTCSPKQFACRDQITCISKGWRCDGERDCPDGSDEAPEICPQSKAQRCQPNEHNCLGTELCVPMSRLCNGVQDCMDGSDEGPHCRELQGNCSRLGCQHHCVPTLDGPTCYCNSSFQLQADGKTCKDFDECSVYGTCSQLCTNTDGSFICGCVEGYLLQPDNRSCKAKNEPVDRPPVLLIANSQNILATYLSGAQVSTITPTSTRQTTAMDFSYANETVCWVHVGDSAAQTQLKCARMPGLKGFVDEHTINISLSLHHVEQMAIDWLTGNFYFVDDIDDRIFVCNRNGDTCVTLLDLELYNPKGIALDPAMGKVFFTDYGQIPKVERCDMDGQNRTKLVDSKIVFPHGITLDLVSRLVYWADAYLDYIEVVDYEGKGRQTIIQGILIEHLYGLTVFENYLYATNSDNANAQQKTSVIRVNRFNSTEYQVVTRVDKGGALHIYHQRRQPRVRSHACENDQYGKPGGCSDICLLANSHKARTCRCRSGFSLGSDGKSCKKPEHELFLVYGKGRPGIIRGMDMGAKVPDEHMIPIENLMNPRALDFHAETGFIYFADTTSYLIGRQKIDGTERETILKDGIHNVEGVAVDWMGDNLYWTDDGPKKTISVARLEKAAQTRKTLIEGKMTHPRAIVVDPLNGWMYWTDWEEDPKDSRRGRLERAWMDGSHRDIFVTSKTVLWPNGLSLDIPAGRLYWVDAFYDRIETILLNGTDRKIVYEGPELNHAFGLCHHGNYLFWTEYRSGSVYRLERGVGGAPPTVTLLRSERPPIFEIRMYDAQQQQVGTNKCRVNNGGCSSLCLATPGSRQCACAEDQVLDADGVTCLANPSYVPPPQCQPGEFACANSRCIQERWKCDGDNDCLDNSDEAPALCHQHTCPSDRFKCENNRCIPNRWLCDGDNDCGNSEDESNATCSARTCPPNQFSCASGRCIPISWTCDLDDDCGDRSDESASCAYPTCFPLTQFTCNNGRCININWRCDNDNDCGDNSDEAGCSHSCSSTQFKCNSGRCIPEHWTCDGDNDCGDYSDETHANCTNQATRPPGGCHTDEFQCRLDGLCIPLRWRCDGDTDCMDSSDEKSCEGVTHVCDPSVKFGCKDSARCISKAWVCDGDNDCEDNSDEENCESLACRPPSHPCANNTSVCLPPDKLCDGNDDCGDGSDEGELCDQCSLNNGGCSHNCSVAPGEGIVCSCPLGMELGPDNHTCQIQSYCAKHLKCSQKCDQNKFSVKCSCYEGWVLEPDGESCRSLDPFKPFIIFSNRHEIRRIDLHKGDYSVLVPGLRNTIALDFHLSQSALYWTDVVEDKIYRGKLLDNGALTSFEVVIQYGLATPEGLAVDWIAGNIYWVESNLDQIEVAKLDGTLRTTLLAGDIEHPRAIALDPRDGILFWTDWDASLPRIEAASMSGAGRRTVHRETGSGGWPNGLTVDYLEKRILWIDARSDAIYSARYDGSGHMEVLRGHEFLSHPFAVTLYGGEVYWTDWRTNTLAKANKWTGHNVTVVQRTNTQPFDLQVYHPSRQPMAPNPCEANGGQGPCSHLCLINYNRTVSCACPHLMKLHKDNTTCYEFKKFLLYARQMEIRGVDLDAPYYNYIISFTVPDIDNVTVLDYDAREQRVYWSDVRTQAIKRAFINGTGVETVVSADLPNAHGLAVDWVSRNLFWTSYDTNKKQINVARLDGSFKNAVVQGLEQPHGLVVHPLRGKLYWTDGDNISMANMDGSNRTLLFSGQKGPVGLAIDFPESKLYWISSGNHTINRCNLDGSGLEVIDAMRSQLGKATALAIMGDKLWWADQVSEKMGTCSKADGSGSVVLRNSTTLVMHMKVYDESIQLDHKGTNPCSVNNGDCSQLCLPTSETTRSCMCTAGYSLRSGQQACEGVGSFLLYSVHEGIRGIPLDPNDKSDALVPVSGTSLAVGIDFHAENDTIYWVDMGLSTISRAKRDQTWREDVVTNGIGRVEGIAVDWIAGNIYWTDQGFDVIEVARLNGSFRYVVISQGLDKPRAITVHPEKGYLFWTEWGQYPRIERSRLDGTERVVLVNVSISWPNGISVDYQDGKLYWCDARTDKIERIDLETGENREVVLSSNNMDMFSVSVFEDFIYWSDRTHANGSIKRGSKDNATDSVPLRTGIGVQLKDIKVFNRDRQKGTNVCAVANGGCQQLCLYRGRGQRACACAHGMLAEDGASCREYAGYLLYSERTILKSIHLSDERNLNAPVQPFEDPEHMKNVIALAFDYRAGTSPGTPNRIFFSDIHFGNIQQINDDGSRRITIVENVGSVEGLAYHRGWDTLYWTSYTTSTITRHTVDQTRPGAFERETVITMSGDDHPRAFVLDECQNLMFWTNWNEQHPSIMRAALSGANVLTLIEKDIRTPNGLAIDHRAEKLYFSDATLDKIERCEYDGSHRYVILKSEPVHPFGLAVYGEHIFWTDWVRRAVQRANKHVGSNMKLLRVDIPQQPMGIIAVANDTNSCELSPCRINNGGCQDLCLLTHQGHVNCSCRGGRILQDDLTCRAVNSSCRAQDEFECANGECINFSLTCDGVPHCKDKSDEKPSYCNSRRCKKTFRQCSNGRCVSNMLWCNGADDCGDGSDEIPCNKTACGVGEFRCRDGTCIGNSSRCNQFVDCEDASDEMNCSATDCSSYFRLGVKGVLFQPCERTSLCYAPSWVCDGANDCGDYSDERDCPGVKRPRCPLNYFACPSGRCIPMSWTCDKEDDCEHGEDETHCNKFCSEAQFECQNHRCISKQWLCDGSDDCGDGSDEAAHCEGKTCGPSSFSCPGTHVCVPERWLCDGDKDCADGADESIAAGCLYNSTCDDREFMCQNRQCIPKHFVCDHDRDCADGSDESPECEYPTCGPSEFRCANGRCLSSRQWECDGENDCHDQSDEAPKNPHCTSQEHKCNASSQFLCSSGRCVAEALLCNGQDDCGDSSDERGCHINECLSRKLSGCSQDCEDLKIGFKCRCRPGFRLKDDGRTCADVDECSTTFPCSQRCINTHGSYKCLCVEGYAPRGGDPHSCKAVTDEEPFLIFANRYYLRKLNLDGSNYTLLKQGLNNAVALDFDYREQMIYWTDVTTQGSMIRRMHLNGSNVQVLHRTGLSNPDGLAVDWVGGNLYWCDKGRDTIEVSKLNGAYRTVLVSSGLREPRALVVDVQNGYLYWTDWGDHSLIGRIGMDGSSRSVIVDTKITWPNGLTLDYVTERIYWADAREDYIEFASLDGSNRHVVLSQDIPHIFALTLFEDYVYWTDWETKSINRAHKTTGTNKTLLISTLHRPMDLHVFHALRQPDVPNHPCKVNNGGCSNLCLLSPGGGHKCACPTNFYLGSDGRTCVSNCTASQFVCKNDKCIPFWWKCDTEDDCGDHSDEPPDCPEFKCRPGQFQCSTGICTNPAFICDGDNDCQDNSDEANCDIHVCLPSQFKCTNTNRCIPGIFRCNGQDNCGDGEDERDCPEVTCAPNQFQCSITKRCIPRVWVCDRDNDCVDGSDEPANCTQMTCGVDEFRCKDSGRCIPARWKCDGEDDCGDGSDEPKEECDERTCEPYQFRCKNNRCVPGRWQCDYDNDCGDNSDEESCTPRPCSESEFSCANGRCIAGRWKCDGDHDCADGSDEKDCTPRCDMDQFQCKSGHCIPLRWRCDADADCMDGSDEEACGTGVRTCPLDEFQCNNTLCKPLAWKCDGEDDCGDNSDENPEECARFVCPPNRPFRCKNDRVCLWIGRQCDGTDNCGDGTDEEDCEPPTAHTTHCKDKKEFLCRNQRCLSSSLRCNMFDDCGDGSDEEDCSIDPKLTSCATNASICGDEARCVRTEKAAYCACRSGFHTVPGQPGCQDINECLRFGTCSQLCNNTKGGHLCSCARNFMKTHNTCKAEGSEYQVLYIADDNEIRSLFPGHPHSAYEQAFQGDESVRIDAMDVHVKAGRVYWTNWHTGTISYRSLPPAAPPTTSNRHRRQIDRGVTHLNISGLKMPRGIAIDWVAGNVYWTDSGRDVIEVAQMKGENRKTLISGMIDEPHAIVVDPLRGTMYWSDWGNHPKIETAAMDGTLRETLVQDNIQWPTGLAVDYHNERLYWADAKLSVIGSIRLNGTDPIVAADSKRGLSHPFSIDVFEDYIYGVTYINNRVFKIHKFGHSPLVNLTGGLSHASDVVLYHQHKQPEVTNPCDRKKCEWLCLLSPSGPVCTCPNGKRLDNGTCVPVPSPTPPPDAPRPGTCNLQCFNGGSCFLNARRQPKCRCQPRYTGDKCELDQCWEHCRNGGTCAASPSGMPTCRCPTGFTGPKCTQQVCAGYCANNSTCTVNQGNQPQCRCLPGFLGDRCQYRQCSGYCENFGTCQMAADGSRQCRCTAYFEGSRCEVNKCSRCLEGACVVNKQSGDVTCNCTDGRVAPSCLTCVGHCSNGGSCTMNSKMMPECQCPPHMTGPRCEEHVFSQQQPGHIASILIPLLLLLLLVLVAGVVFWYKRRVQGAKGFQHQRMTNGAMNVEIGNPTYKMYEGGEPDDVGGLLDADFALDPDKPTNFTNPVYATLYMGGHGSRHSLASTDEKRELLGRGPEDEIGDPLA

With “Factor Xa-cleaved FVIII light chain (from UniProt P00451 1741-2351)”, in experiment [1], the Kd (usually the constant that tells how readily two partners part at equilibrium) came out at 22 nM; the koff (as a rule, a measure of how fast the partners let go of each other) amounted to 0.003 s⁻¹; the kon (as a rule, the rate constant with which the complex forms) was 130000 M⁻¹ s⁻¹. For the same molecule, in experiment [2], the Kd came out at 60 nM, the koff came out at 0.056 s⁻¹ and the kon is 900000 M⁻¹ s⁻¹.
As to “Recombinant FVIII C2 domain (from UniProt P00451 2192-2351)”, the Kd in experiment [3] was 3400 nM.
In experiment [1], “Recombinant FVIII a3-A3-C1 fragment (from UniProt P00451 1668-2191)” gave a Kd of 26 nM, a koff of 0.0041 s⁻¹ and a kon of 160000 M⁻¹ s⁻¹. In experiment [2], the Kd was found to be 74 nM, the koff amounted to 0.08 s⁻¹ and the kon worked out at 1.1e+06 M⁻¹ s⁻¹.
On to B1, for which the “IC50 (read off the curve)” value in experiment [4] was ~7 nM. Besides, the binding result in experiment [5] is listed as “no binding (tested: 40 nM)”.
Take KNFVKPNETKTYFWK [Synthetic peptide FVIII Lys^1804-Lys^1818]: the IC50 (in general, the point on the concentration scale where inhibition reaches its midpoint) in experiment [6] worked out at 1900 nM.
Still for that read-out and setting: the same measure for DGKKWQTYRG (also called 2108-2117) [Synthetic peptide FVIII Asp^2108-Gly^2117]: 900000 nM.
As to B2, in experiment [7], the binding result is on record as “no binding (tested: 100 nM)”.
In the case of B3, in experiment [8], the EC50 (read off the curve) (commonly the concentration at which the effect is half-maximal) was ~20 nM. The Kd in experiment [1] was 18 nM; in experiment [2], 59 nM.
With YFWKVQHHMAPTKDEFDCKA [Synthetic peptide FVIII Tyr^1815-Ala^1834], the IC50 in experiment [6] amounted to 16800 nM.
